Results published in US20220098240A1 (FUJIFILM, published 2022).
Bridge positions count the residues as written; N and C are the ends. Square brackets hold non-standard residues; d marks the D form. Ends that are not written are not given here. COCH2 = acetyl group that carries the bridge; Pen = CC(C)(S)[C@H](N)C(=O)O; hCys = N[C@@H](CCS)C(=O)O; Orn = NCCC[C@H](N)C(=O)O; Dab = NCC[C@H](N)C(=O)O; Dap = NC[C@H](N)C(=O)O

Legend:
[1] = biological target: T1, human integrin αvβ5 (human, UniProt P06756 31-992; P18084 24-719); assay: SPR, Biacore 3000, peptide immobilised on CM5 chip, integrin 30-1000 nM flowed; grade A = dissociation constant 50 nM or less
T1 construct: soluble analyte in SPR at 30, 100, 300 and 1,000 nM in HEPES buffer with 5 mM magnesium chloride; heterodimer of an alpha and a beta chain
Description: (§1) However, only for the cyclic peptide 22, in which the number of lysine residues having an amino group as the immobilizing functional group was 1, the sample solution to be supplied to the sensor chip was set to 5,000 μL instead of 300 μL. Similarly, 70 μL of the mixed aqueous solution of 0.2 M EDC and 0.04 M NHS was added to another flow channel of the same sensor chip without immobilizing the sample, and then blocking treatment and washing treatment were carried out. Hereinafter, the obtained immobilization-treated sensor chip is referred to as an “immobilization-treated sensor chip A”.
(§2) After adding human integrin αvβ5 for 10 minutes at 25° C., which was diluted to 30 nM using a HEPES buffer solution to which magnesium chloride was added to 5 mM, in each flow channel of the immobilization-treated sensor chip A prepared in (1) above, the same HEPES buffer solution (containing 5 mM magnesium chloride) was allowed to flow as a running buffer for 30 minutes, and measurement was carried out with Biacore 3000.
(§3) Then, a regeneration treatment of removing human integrin αvβ5 was carried out by allowing a 0.5 M EDTA aqueous solution to flow through each flow channel for 10 minutes. Further, the above-described measurement process consisting of adding integrin for 10 minutes, allowing a running buffer to flow for 30 minutes, carrying out measurement with Biacore 3000, and carrying out regeneration treatment with 0.5 M EDTA aqueous solution was carried out in the same manner for 100 nM human integrin αvβ5, 300 nM human integrin αvβ5, and 1,000 nM human integrin αvβ5. Dissociation constant between the cyclic peptide and human integrin αvβ5 was calculated from the difference between the value measured by Biacore 3000 in the flow channel immobilized with the cyclic peptide and the value measured by Biacore 3000 in the flow channel unimmobilized with the cyclic peptide, in a case where each concentration of human integrin αvβ5 was allowed to flow, and the integrin binding property was evaluated according to the following evaluation standards. It is preferable that the evaluation result satisfies the evaluation standard A, B, or C.

[2] = biological target: T1, human integrin αvβ5; assay: SPR, Biacore 3000, peptide immobilised on CM5 chip, integrin 30-1000 nM flowed; grade B = dissociation constant more than 50 nM and 100 nM or less
Description: as §1, §2, §3

T1 sequence (P06756 31-992, chain 1 of 2): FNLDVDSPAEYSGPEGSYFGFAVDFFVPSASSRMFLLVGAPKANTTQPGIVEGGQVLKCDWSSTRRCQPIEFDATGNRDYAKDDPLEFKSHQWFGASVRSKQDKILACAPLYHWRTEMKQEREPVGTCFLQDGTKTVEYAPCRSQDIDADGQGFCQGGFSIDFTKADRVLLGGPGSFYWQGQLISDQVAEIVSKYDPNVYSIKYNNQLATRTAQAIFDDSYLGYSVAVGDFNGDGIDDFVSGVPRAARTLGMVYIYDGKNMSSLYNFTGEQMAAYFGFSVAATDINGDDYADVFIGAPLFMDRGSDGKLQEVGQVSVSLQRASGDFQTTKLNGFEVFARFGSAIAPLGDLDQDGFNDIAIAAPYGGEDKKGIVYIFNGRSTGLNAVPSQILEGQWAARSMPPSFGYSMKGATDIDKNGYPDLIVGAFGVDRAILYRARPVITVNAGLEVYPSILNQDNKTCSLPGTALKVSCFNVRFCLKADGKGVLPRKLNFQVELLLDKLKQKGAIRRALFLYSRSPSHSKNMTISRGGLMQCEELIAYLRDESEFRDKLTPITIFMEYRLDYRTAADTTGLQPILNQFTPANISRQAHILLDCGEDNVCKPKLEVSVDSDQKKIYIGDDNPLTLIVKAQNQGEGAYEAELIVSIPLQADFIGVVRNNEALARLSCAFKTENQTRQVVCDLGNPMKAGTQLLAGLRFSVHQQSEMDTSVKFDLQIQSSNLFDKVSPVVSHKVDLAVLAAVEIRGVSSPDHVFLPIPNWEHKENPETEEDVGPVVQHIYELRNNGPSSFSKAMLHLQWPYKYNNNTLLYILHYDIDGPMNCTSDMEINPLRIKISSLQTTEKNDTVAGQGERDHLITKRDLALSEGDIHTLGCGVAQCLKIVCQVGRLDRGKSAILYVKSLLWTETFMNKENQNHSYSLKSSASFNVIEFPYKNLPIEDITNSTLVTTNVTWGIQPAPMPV
T1 sequence (P18084 24-719, chain 2 of 2): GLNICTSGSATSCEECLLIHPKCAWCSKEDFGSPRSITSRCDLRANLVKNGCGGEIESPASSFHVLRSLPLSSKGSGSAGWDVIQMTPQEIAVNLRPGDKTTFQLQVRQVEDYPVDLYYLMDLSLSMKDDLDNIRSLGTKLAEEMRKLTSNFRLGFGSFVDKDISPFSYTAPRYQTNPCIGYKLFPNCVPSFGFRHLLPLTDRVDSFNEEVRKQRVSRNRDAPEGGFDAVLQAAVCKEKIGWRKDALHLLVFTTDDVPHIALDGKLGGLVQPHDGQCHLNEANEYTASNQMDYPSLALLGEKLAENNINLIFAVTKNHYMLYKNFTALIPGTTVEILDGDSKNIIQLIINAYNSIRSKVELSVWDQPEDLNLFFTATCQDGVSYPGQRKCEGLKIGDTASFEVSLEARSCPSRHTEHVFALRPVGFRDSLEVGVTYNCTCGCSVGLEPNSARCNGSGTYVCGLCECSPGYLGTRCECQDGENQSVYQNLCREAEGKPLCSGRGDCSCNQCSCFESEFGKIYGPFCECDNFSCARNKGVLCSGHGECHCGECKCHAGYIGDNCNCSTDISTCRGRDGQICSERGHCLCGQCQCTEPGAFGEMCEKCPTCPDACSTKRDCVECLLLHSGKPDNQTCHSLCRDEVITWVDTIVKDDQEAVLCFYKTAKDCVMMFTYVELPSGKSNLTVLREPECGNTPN

Binder | dissociation constant (KD) [1] [nM] | dissociation constant [1] [nM] | further results
{CH2CO}-E[Orn]RGD[hCys]F[Pen]KKK (thioether N-8; bridge 2-6; not fully specified (residue 2, bridges); printed as E RGD- -F-(Pen)-KKK) [Cyclic peptide 24] | < 50 |  | 
{CH2CO}-E[hCys]RGD[Orn](COCH2)F[hCys]KKK (thioether 2-6, N-8) [Cyclic peptide 43] |  | < 50 | 
{CH2CO}-V[hCys]RGDK(COCH2)F[hCys]AKKK (thioether 2-6, N-8) [Cyclic peptide 44] |  | < 50 | 
{CH2CO}-E[Orn](COCH2)RGD[hCys]F[hCys]KKK (thioether 2-6, N-8) [Cyclic peptide 40] |  | < 50 | 
XXRGDXFXKKK (not fully specified; thioether: L1 alpha-NH2 through acetyl to Hcy8; thioether: Hcy2 to K(acetyl)6) [Cyclic peptide 26] |  | < 50 | 
XCRGDXFCKKK (not fully specified; thioether: I1 alpha-NH2 through acetyl to C8; thioether: C2 to K(acetyl)6, bicyclic; all residues L; immobilised on CM5 chip through amino groups) [Cyclic peptide 12] | ≤ 50 |  | 
{CH2CO}-D[hCys]RGDK(COCH2)F[hCys]AKKK (thioether 2-6, N-8) [Cyclic peptide 45] |  | < 50 | 
{CH2CO}-I[hCys]RGDK(COCH2)FCKKK (thioether 2-6 via Ac; thioether N-8; not fully specified, bicyclic; all residues L; immobilised on CM5 chip through amino groups) [Cyclic peptide 17] | ≤ 50 |  | 
{CH2CO}-I[hCys]RGDK(COCH2)F[hCys]AKKK (thioether 2-6, N-8) [Cyclic peptide 35] |  | < 50 | 
ACDCRGDCFCGKKK (disulfide 2-10, 4-8, bicyclic comparative peptide; all residues L; immobilised on CM5 chip through amino groups) [Cyclic peptide 49] |  | ≤ 50 | 
{CH2CO}-I[Dap](COCH2)RGD[hCys]F[hCys]KKK (thioether 2-6, N-8) [Cyclic peptide 1] |  |  | dissociation constant (KD) [2]: 50 to 100 nM
{CH2CO}-ICRGDK(COCH2)F[hCys]KKK (thioether 2-6 via Ac; thioether N-8; not fully specified, bicyclic; all residues L; immobilised on CM5 chip through amino groups) [Cyclic peptide 18] | ≤ 50 |  | 
{CH2CO}-V[Orn](COCH2)RGD[hCys]F[hCys]KKK (thioether 2-6, N-8) [Cyclic peptide 38] |  | < 50 | 
{CH2CO}-D[Orn]RGD[hCys]F[hCys]KKK (thioether N-8; bridge 2-6; not fully specified (residue 2, bridges)) [Cyclic peptide 39] |  | < 50 | 
{CH2CO}-E[hCys]RGD[Orn](COCH2)F[hCys]AKKK (thioether 2-6, N-8) [Cyclic peptide 47] |  | < 50 | 
{CH2CO}-I[hCys]RGDK(COCH2)F[hCys]K (thioether 2-6, N-8) [Cyclic peptide 22] | < 50 |  | 
{CH2CO}-I[hCys]RGDK(COCH2)P[hCys]KKK (thioether 2-6, N-8) [Cyclic peptide 31] |  |  | dissociation constant [2]: 50 to 100 nM

Binder | dissociation constant (KD) [1] [nM] | dissociation constant [1] [nM] | further results
{CH2CO}-D[hCys]RGDK(COCH2)F[hCys]KKK (thioether 2-6, N-8) [Cyclic peptide 29] |  | < 50 | 
{CH2CO}-I[Orn](COCH2)RGD[hCys]FCKKK (thioether 2-6 via Ac; thioether N-8; not fully specified, bicyclic; all residues L; immobilised on CM5 chip through amino groups) [Cyclic peptide 15] | ≤ 50 |  | 
{CH2CO}-Y[hCys]RGDK(COCH2)F[hCys]KKK (thioether 2-6, N-8) [Cyclic peptide 25] |  | < 50 | 
{CH2CO}-E[hCys]RGDK(COCH2)F[hCys]AKKK (thioether 2-6, N-8) [Cyclic peptide 46] |  | < 50 | 
{CH2CO}-ICRGD[Dab](COCH2)F[hCys]KKK (thioether 2-6 via Ac; thioether N-8; not fully specified, bicyclic; all residues L; immobilised on CM5 chip through amino groups) [Cyclic peptide 20] | ≤ 50 |  | 
{CH2CO}-E[hCys]RGDK(COCH2)F[hCys]KKK (thioether 2-6, N-8) [Cyclic peptide 30] |  | < 50 | 
{CH2CO}-ICRGD[Dab](COCH2)FCKKK (thioether 2-6 via Ac; thioether N-8, bicyclic; all residues L; immobilised on CM5 chip through amino groups) [Cyclic peptide 8] | ≤ 50 |  | 
{CH2CO}-I[Orn](COCH2)RGD[hCys]F[hCys]KKK (thioether 2-6, N-8) [Cyclic peptide 3] | < 50 |  | 
K[Dap]RGD[hCys]F[hCys]KKK (bridge N-8, 2-6; not fully specified (N-terminus, bridges); printed as K RGD- -F-(Hcy)-KKK) [Cyclic peptide 21] |  |  | dissociation constant (KD) [2]: 50 to 100 nM
{CH2CO}-I[Orn](COCH2)RGD[hCys]F[Pen]KKK (thioether 2-6, N-8) [Cyclic peptide 23] | < 50 |  | 
{CH2CO}-D[hCys]RGD[Orn](COCH2)F[hCys]KKK (thioether 2-6, N-8) [Cyclic peptide 42] |  | < 50 | 
{CH2CO}-I[hCys]RGDK(COCH2)F[hCys]KKK (thioether 2-6, N-8) [Cyclic peptide 11] | < 50 |  | 
{CH2CO}-T[hCys]RGDK(COCH2)F[hCys]KKK (thioether 2-6, N-8) [Cyclic peptide 27] |  | < 50 | 
{CH2CO}-I[Dap](COCH2)RGDCF[hCys]KKK (thioether 2-6 via Ac; thioether N-8; not fully specified, bicyclic; all residues L; immobilised on CM5 chip through amino groups) [Cyclic peptide 14] | ≤ 50 |  | 
{CH2CO}-V[hCys]RGDK(COCH2)F[hCys]KKK (thioether 2-6, N-8) [Cyclic peptide 28] |  | < 50 | 
{CH2CO}-I[hCys]RGDK(COCH2)Y[hCys]KKK (thioether 2-6, N-8) [Cyclic peptide 32] |  |  | dissociation constant [2]: 50 to 100 nM
{CH2CO}-KCRGDCFCKKK (disulfide 2-6; thioether N-8, bicyclic comparative peptide; all residues L; immobilised on CM5 chip through amino groups) [Cyclic peptide 48] |  | ≤ 50 | 
